From the domain aggregation screens of Martell et al. (2025)

Assay: soluble fraction after stress (log2 fold change); higher = more stays soluble; pooled small domains, quantitative proteomics
Conditions: stress: pH 4
Summary of the method: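 With high-throughput quantitative proteomics, pooled custom libraries of small protein domains were measured after pH 4 stress. Each domain's soluble amount after the stress gives a fold change taken as aggregation propensity. Higher log2 values mean more of the domain stayed soluble.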

| Sequence | soluble fraction (log2) |
| --- | --- |
| HMFEERKKDWNLTGLLDDVIRRYIHQLTNDELNEINLEKSSGMPDEEIKNGIKLPLAVMQQRRETWGS | -0.308 |
| HMFEQRLRQAMKELRLKQVQVAGLTGKSRGAISQYLSGDRVPPDGVQREMAIALGLEADYFSR | 0.343 |
| HMFERFIFTDEVYIRLKKSGLPQTTLRPLLEIHGKSFDHNEINIILSGLIPNQDFERYAQIIKSHSRF | -2.14 |
| HMFEYDEIMEQSVPKIAWGSLLTIMKKASSHKEMLWYINETYKNGWSRSMVLNQIAMASYERSLIE | -0.918 |
| HMFFDKIIVDFLADGSRIDKYISTLYPDISRTHIQRLIAEQFILVNDSVVKSNYKLSTNDVVLIHIPEA | -1.78 |
| HMFFMTMGEKIQLLRKKQNWSQETLAEKLSVSRQAVSLWERDESQPELDKLLKLAKIFSVTTDYLIDDSVT | -0.0472 |
| HMFGGIEFGWSQLPDGRVEYIIQLDDQAIAALKNGRSLTSSLPPEVQNADRIRIQYGAGPVEKGLLLQ | -0.0928 |
| HMFIEMDEPEKILHRILNEANGKLELDKIGYRAEWPIGKVLTVLMSLELKGVVQSHPGKVYSL | -0.464 |
| HMFIGFLHQLKEAGVPVSIREYLDFLSGLDKGITNLNTNSFYHFARASLVKDERHYDRFDRTFSEFFEGAL | -1.71 |
| HMFIQLSQEEKKVVEGLQQRSKTHLDALALEVGQNISKTAAMLMELEMKGVVRALPGKYYEL | -0.239 |
| HMFKEVPVPDVKGMTLEEAKLALEKEGFILGKTEEAESTEVAAGKIISQNLEAGKIAKQGTSVNLVVSKGK | -0.0392 |
| HMFKLPRTIGTFEDSDVVIGAGKFGPYIMHNKKFVSLPKSEDPLTIGLERAIELISAKREQEKQRH | 0.237 |
| HMFLPFFDNLRKAGVPVSLREFLGFLEGMKAGLATYDIDAFYFLARTTMVKDERNLDKFDRAFSATFKG | -0.935 |
| HMFNDGEIAIYTDPRGDAGETQIWKRGKGYYGQNDSFDFEAKDKKELEMKLKRWGYVLIAGSIDE | -0.0774 |
| HMFNGDPTTRESILASARAEIDQYGIIGLRLSAVAEKAQVSVPLIYKYFEDRDGLLAVVLGDW | -1.36 |
| HMFNTWLGEIRSNTGANVRSGPDASAAIVDARPNETVVRVIGQSGNWLQIGDKQFVAQSLVAP | -0.0317 |
| HMFPDLTGDELRIVDLLNTANDLQVNIITAKTNLPISRVTSLLFQLEMKGVVKPLAGGMYHLLG | -0.117 |
| HMFPELDEEEQKITKLLQAQNDLPANIIAVKTALNIGTTQAKLFSLEMKGVVKPYAGGFYHLL | 0.0183 |
| HMFPNLTNEEQQVMKVLAKTNDLQINMLSVQSNLPIARLTALLFSMEMKGVVKTLAGGVYHLL | 0.375 |
| HMFPNSFSEREKEVVDLLLQAKSNKQIAFSLGITNRTVEYHLGNIFAKLGVSSRSEAILTITNYKNQ | -1.27 |
| HMFPQVEVQLIYSYKSDRILNKMLKEFNVVILNQVFKDDILTSFHMNYSLVNQLITKIKSYPDISYKIIN | -0.89 |
| HMFPTLNEDEQTIVSALQKINDQPINTLSIHTALPIPRLTSLLFQLEIKGVIKQLAGGTYHVL | -0.147 |
| HMFQLSNEAKQQVLGELKRYESKQSAVLPALYIGQKDNKGHITPEVIRELSKVMDIPESQINEVFTFYTM | -0.402 |

| Sequence | soluble fraction (log2) |
| --- | --- |
| HMFQRLPFSFANRYKMVLEYQHPERPPVLYYVEPLKAAAILEVSRVIKSGFTPQAIVSDEFEKKLTEAYQR | 0.0565 |
| HMFRMTPQRMAILAEVQNAERHLTAAEIYERVRRKYPTIAYGTVYRTLHLLAKHGLIQEFPFGDNASLFDR | -0.0123 |
| HMFRPRIEPGAKGSYVLEVQKRLAKLGYEHAGFDGVYGPGTERAIMQLQRDKGLPVTGIVDMRTYEALGLF | ≥ 0.43 |
| HMFRSTLEELKHQISGFLKANQSQEFTAQNLADGLRMTSIAEYKRVVNAMDALVRDGELTFDAGKYQYNPN | 0.252 |
| HMFSMKDFGQRLRQLRKERGLTQGDLARLAKIDIMQVSRYERGLGLPSLETAIALARVLETSTDLLFLG | -0.0792 |
| HMFSPSDEDLELAHRQIRAFEEVEANGKSIAVVDGRIVESLHIVTARDTLEKAKAITALAEEM | -0.0013 |
| HMFSVVDKITLQEELKKLSKKEQLLIQLRYYDELNQEEIAKIFHVSQVQISRMEKKIIEKLKKQF | 0.273 |
| HMFTDEELEHIRSALIQAGIRLSKELGLQKMSVEKLTAAVGIAKGSFYMFFGSKEDFILEVAEYTGAQ | -0.679 |
| HMFTEEEMTKLRHELILAGIRLSRELGLQRMSVEKITSAVGIAKGSFYIFFDSKEDFILEIADHANRE | -0.828 |
| HMFTEEQMDWLRLIKDHIVASLSILPEDLELTPFDRKGGLLGFYDAFGDEYEKILQEMNEELVA | -0.43 |
| HMFTEIMAERNALIQAIQQNLPPQHIQSILSKKNKFRLEDLTNEELRDVWQWILNQRQAQQHQQQ | -0.373 |
| HMFTGELESRVFELNYVDGLVASAALAGVLTDKGSATPIASRAGGENDMLLVVDRIASYSQIEKIITQLD | -1.31 |
| HMFTKSNLEKLSNSELILKAIDSGNYSKIEFGGSEALNPDVPSYKKDLKNREELIEILSEMGM | -0.0908 |
| HMFVNADEIAKGLSPFNPSSVAIEAGRLMLKRIGELLSAGVSFSVETTLSTRSYINLIQQAQNQGYSVSL | ≥ 0.43 |
| HMFVVVPDLIGKTINQFEEDLSELNLKYVVSDSGNFNPEFKINAVLDQSPKANSKVKDGRKIYLTLNAS | -0.324 |
| HMFWRKIDFYGLNLSTYRNIINIGSDYNYIYLDLGNIYKILNPITGKIIEEQDLVMNIDNINWSS | -0.105 |
| HMFYNDLINFDVFRDSRKIGKIENINSRLPQPVFEIMYDSRIVLIPIHEDFIRKIDKVNNIIYLDIPDGLL | -1.69 |
| HMGAAFITSSKDNAINIRQSANTDSKVIETVTNGQILESNEKSGEWHKVTYYDNDIKKSFTGYVHEGQLK | -0.129 |
| HMGAAIEYGDRGNTVLQAQRLLIARGYMAGSADGIYGRQMEQAVKRFQKEQGLPESGVVDRRTLQVLIRSR | 0.04 |
| HMGAARRFEMSEGGSQKFWEVAVEGPALTVRFGKLGTAGTTQTKTLASAEAAAKEADKLVREKTKKGYAP | -0.596 |
| HMGAATQADIARVQELLNRLGYDAGSPDGLMGPRTRDAILEYQLTEGLETTGTVTRETLASLEARL | -0.939 |
| HMGAGFREAIPPALDGERIDRVVSLLAYVSRNRAAGALAAGSVSVDGEVVFQRSRRVREGEELVVTGFERE | -0.427 |
| HMGAITGLQSRVAFLKGQGTITDAEAKTAMAFLPDPTDSKEVKIAKIGQAREYIMSLIENRA | -0.0578 |

| Sequence | soluble fraction (log2) |
| --- | --- |
| HMGAIVTGTVVEIRSDVVIVNAGLKSEGVVPIEQFRNEAGELEVSVGDEVKVALDALEDGFGETRLS | -1.97 |
| HMGAIVTVPDLAGRPQPGAEAELRRSGLVPKVRTSYSLTGTRGTVISQTPPAGSRVREGAEVEVVVSRGLN | 0.0493 |
| HMGAKLTTAQGGTLKVLVKGKKTHTPTIELRDKDPDFPNAKVVQPDINKGNKQIAHGINGVL | 0.144 |
| HMGALAITPDFVGQTREEAERFLRDLDLSFDIGGKGDRILRQEPVAGQRMNLDQPMKLWVGSMNA | -0.313 |
| HMGANAVAAFTARVRTGPSTGYPVRISVPQGRQVRVISGPYGGWYRVSYQGLTGYTYGGLLRQG | -0.222 |
| HMGAPAISYSKFLEQVDRKNVASVTIYKDGRIDGVMTSGSRFATESPSDPGLVGDLLKAGVEIRAKPP | 0.144 |
| HMGAPVIYELTAESAAGQRIDKYLSGQLADLSRSYLQKLLKDGGVEVNKKPVKSNYKLSEGDQIRLEVPEA | -0.198 |
| HMGAQINSPISGTILKYLVKNGDKITKDQPLVNIESMKMENTIKSDKEGIVNNINFKIGDSVNTADTLLTL | 0.22 |
| HMGAQKITIPDFSNQEATQVYAELKNMGLEYTESRMNHPSIASGYVIKTEPTKGSEVKAGTTVTVYVSLG | -0.128 |
| HMGARHPLPYPFARAHGLLLEADGERSTLWASTNVSPAALSEVMRKYAVDVIEEEPPETLSQRIAAAYAA | -0.763 |
| HMGASFITSSKDNAINIRESATTDSKVIETIKNGEILESTEKSGDWHKVTYYNSEIKKSFTGYIHNSQLK | -0.151 |
| HMGASLVIVPGAGFLRVSASSQTRLDVYSITGMRVRSVDFEPGTTEIELPAGFYIAGGRKFFV | -0.124 |
| HMGAYITYEVKPGDTLWDIANKFPGVSADNIKTWNKVDELIKAGERLKINTQTITDYSPDKYPS | -0.575 |
| HMGDADDLSRELLQQGLSLKEAVADFERRYLQQAMQRHSSIASVSEALDVHFSTLWRKLVKYNLV | -0.621 |
| HMGDADDLTRIKGIGPKLSKTLNELGIYHFRQIAGWQSDEADWVDDYLSFKGRVMREQWIEQAQKFAS | -0.292 |
| HMGDAIPVPDVSGFSEDQAMNNLRKVGLRPKATYVADDNTAKGYVTGTSPAKNIEVAPDSEVIVYVSSGP | 0.241 |
| HMGDAPLITVDKRTIKVNGAKAQIQVYDTTGRLVKNVSPAGKLTLIEMAKPGIFIVHTQSMSFKVVL | 0.00664 |
| HMGDAVYSKVKDLVNTYNALAKQTGKSDLVSISQSRTWMVNDTKAHEVQWNKIGITIEDDQTLTI | -0.13 |
| HMGDLDLVTFGQRLRHLRRSRNMTLSELGERVGRAPSQLSLLENGKREPKLSLLTALAKALDVSVEEL | 0.178 |
| HMGDLVKGKVVGYDPDNVIVDIGAKTNALVPNREAVVEAGDDIKETLKKGNEYEFLIIRDEDEEGEFL | 0.0813 |
| HMGDPEYFKKQLGDFMDRFNITSEDIKNLSIAGAINRMMNNAEGEDKTVLSKLLETVNKSGVGNLPAKTI | -0.144 |
| HMGDPVRVDKFLHDMNVGTRSQIRKLIKEKAVFVNDVVAKSGRVKVDPVVDQVRLGEQVITYQ | 0.0055 |
| HMGDPYAILGLLPGASMEDVRHAWRRQAAENHPDRMLQRGAPPEFVEIAREKTAAINAAYARIREELSI | -0.638 |
